# ChEMBL document CHEMBL1126580, “Enantiospecific syntheses of alpha-(fluoromethyl)tryptophan analogues: interactions with tryptophan hydroxylase and aromatic L-amino acid decarboxylase” (J Med Chem, 1993)
# B1: Tryptophan 5-hydroxylase 1 (Rattus norvegicus), P09810 (protein)
# chain: MIEDNKENKDHSSERGRVTLIFSLKNEVGGLIKALKIFQENHVNLLHIESRKSKRRNSEFEIFVDCDINREQLNDIFPLLKSHTTVLSVDSPDQLPEKEDVMETVPWFPKKISDLDFCANRVLLYGSELDADHPGFKDNVYRRRRKYFAELAMNYKHGDPIPKIEFTEEEIKTWGTIFRELNKLYPTHACREYLRNLPLLSKYCGYREDNVPQLEDVSNFLKERTGFSIRPVAGYLSPRDFLSGLAFRVFHCTQYVRHSSDPLYTPEPDTCHELLGHVPLLAEPSFAQFSQEIGLASLGASEETVQKLATCYFFTVEFGLCKQDGQLRVFGAGLLSSISELRHALSGHAKVKPFDPKVACKQECLITSFQDVYFVSESFEDAKEKMREFAKTVKRPFGVKYNPYTQSIQVLRDSKSITSAMNELRHDLDVVNDALARVSRWPSV
# Tests used:
# [1] = substrate: N[C@@](CF)(Cc1c[nH]c2ccccc12)C(=O)O; assay: Compound was evaluated as a substrate for P815 tryptophan hydroxylase […]
# [2] = substrate: N[C@@](CF)(Cc1c[nH]c2ccccc12)C(=O)O; assay: Km value was evaluated as a substrate for P815 tryptophan hydroxylase […]
protein,measurement,setting,value
B1,Vmax (uM min-1 (mg of protein)-1),[1],17.7
same,Km,[2],4.31 mM
